Values joined by “and” are separate entries in the source; they are usually repeats but may differ in a detail not shown here. Equal values may be shown once. Read-outs that look alike come from different tables or passages of the source.
Experiments:
[1] = biological target: human CD3 on Jurkat-T Lucia cells (CD3+) (human, UniProt P07766 23-207; P04234 22-171; P09693 23-182); assay: flow cytometry on Jurkat-T Lucia cells (CD3+); scFv-Fc followed by Alexa Fluor 647-conjugated donkey anti-human F(ab')2 pAbs
[2] = biological target: T1, human ROR1 on cells (MDA-MB-231, ROR2-, ROR1+; also 786-O, ROR2+, ROR1+) (human, UniProt Q01973 30-937); assay: Retrogenix cell microarray post-screen, ROR1 expressed on HEK 293 cells
T1 construct: whole, on cells

[3] = biological target: T1, human ROR1 on cells (MDA-MB-231, ROR2-, …); assay: flow cytometry on MDA-MB-231 cells (ROR2-, ROR1+); biAb followed by Alexa Fluor 647-conjugated donkey anti-human F(ab')2 pAbs
[4] = biological target: human ROR2 on cells (endogenous on T47D, 786-O and U266 cell lines); expressed on HEK 293 cells of the … (human, UniProt Q01974 34-943); assay: cell-based or functional assay
[5] = biological target: T1, human ROR1 on cells (MDA-MB-231, ROR2-, …); assay: flow cytometry on MDA-MB-231 cells (ROR2-, ROR1+); Fab followed by PE-conjugated goat anti-human F(ab')2 pAbs
[6] = biological target: T2, hROR2-Fc (human ROR2 Fc fusion protein) (human, UniProt Q01974 34-403, limits assumed); assay: SPR (Biacore X100), Fc-hROR2 captured on CM5 chip via mouse anti-human Fcγ mAb, Fab as analyte, 1:1 binding model
T2 construct: Given both as hROR2-Fc and as Fc-hROR2, so the order of the two parts is not certain; also called Fc-hROR2; not shown: human Fc part (captured by a mouse anti-human IgG CH2 / Fcγ mAb)

[7] = biological target: T2, hROR2-Fc (human ROR2 Fc fusion protein); assay: SPR, Biacore X100; hROR2-Fc captured, Fab injected
[8] = biological target: T2, hROR2-Fc (human ROR2 Fc fusion protein); assay: SPR, Biacore X100; hROR2-Fc captured, Fab injected; reference Fab 401
[9] = biological target: T2, hROR2-Fc (human ROR2 Fc fusion protein); assay: SPR; reference the existing anti-ROR2 antibody (XBR2-401)
[10] = biological target: T2, hROR2-Fc (human ROR2 Fc fusion protein); assay: SPR, Biacore X100; hROR2-Fc captured by anti-human Fc mAb on a CM5 chip, Fab injected
[11] = biological target: T2, hROR2-Fc (human ROR2 Fc fusion protein); assay: SPR (Biacore X100), Fc-hROR2 captured on CM5 chip via mouse anti-human Fcγ mAb, Fab as analyte, 1:1 binding model; remark: listed apart in the source

Binder | binding result [3] | specific lysis of 786-O cells by expanded primary T cells (E:T 10:1, 16 h), EC50 [4] | binding result [5] | koff [6] | kon [6] | Kd [7] | also measured
hX3.12.6 scFv-Fc (IgG1-like format, two identical scFv fused to human IgG1 Fc) (Fc fusion, The text says only: (Gly4Ser)3 linker between VL and VH, fused to the human IgG1 Fc fragment; also called mAb hX3.12.6 in scFv-Fc format; Humanized scFv-Fc xh3.12.6; not shown: human IgG1 Fc fragment) DPMLTQSPSSLSASVGDRVTITCQASQSISSDLSWYQQKPGKAPKLLIYQASTLASGVPSRFKGSGYGTEYTLTISSLQPEDFATYYCLGGYADASYRTAFGGGTKLEIKGGGGSGGGGSGGGGSEVQLVESGGGLVQPGGSLRLSCAASGFTFSSYGVTWVRQAPGKGLEWVSYINTAGNTYYASWAKSRFTISRDNAKNSLYLQMNSLRAEDTAVYYCARDDRWSLNIWGQGTLVTVSS | – | – | – | – | – | – | binding result [1]: no binding; binding result [2]: no binding (tested: 20 µg/mL)
hX3.12.6×v9 ROR2×CD3 bispecific antibody (heterodimeric aglycosylated scFv-Fc) (bispecific antibody, ROR2 scFv on the knob Fc, v9 anti-CD3 scFv on the hole Fc, both N297A; also called hX3.12.6×V9 bi-mAb) chain 1: DPMLTQSPSSLSASVGDRVTITCQASQSISSDLSWYQQKPGKAPKLLIYQASTLASGVPSRFKGSGYGTEYTLTISSLQPEDFATYYCLGGYADASYRTAFGGGTKLEIKGGGGSGGGGSGGGGSEVQLVESGGGLVQPGGSLRLSCAASGFTFSSYGVTWVRQAPGKGLEWVSYINTAGNTYYASWAKSRFTISRDNAKNSLYLQMNSLRAEDTAVYYCARDDRWSLNIWGQGTLVTVSSEPKSSDKTHTCPPCPAPELLGGPSVFLFPPKPKDTLMISRTPEVTCVVVDVSHEDPEVKFNWYVDGVEVHNAKTKPREEQYASTYRVVSVLTVLHQDWLNGKEYKCKVSNKALPAPIEKTISKAKGQPREPQVYTLPPCRDELTKNQVSLWCLVKGFYPSDIAVEWESNGQPENNYKTTPPVLDSDGSFFLYSKLTVDKSRWQQGNVFSCSVMHEALHNHYTQKSLSLSPGA chain 2: EVQLVESGGGLVQPGGSLRLSCAASGYSFTGYTMNWVRQAPGKGLEWVALINPYKGVSTYNQKFKDRFTISVDKSKNTAYLQMNSLRAEDTAVYYCARSGYYGDSDWYFDVWGQGTLVTVSSGGGGSGGGGSGGGGSDIQMTQSPSSLSASVGDRVTITCRASQDIRNYLNWYQQKPGKAPKLLIYYTSRLESGVPSRFSGSGSGTDYTLTISSLQPEDFATYYCQQGNTLPWTFGQGTKVEIKEPKSSDKTHTCPPCPAPELLGGPSVFLFPPKPKDTLMISRTPEVTCVVVDVSHEDPEVKFNWYVDGVEVHNAKTKPREEQYASTYRVVSVLTVLHQDWLNGKEYKCKVSNKALPAPIEKTISKAKGQPREPQVCTLPPSRDELTKNQVSLSCAVKGFYPSDIAVEWESNGQPENNYKTTPPVLDSDGSFFLVSKLTVDKSRWQQGNVFSCSVMHEALHNHYTQKSLSLSPGA | no binding | 0.21 µg/mL and 2.1 nM | – | – | – | – | –
hX3.12.5×v9 ROR2×CD3 bispecific antibody (heterodimeric aglycosylated scFv-Fc) (bispecific antibody, ROR2 scFv on the knob Fc, v9 anti-CD3 scFv on the hole Fc, both N297A; also called hX3.12.5×V9 bi-mAb; hX3.12.5×CD3 bi-mAb) chain 1: DPMLTQSPSSLSASVGDRVTITCQASQSISSDLSWYQQKPGKAPKLLIYQASTLASGVPSRFKGSGYGTEYTLTISSLQPEDFATYYCLGGYADASYRTAFGGGTKLEIKGGGGSGGGGSGGGGSEVQLVESGGGLIQPGGSLRLSCAASGFTVSSYGVTWVRQAPGKGLEWVSYINTAGNTYYASWAKSRFTISRDNSKNTLYLQMNSLRAEDTAVYYCARDDRWSLNIWGQGTLVTVSSEPKSSDKTHTCPPCPAPELLGGPSVFLFPPKPKDTLMISRTPEVTCVVVDVSHEDPEVKFNWYVDGVEVHNAKTKPREEQYASTYRVVSVLTVLHQDWLNGKEYKCKVSNKALPAPIEKTISKAKGQPREPQVYTLPPCRDELTKNQVSLWCLVKGFYPSDIAVEWESNGQPENNYKTTPPVLDSDGSFFLYSKLTVDKSRWQQGNVFSCSVMHEALHNHYTQKSLSLSPGA chain 2: EVQLVESGGGLVQPGGSLRLSCAASGYSFTGYTMNWVRQAPGKGLEWVALINPYKGVSTYNQKFKDRFTISVDKSKNTAYLQMNSLRAEDTAVYYCARSGYYGDSDWYFDVWGQGTLVTVSSGGGGSGGGGSGGGGSDIQMTQSPSSLSASVGDRVTITCRASQDIRNYLNWYQQKPGKAPKLLIYYTSRLESGVPSRFSGSGSGTDYTLTISSLQPEDFATYYCQQGNTLPWTFGQGTKVEIKEPKSSDKTHTCPPCPAPELLGGPSVFLFPPKPKDTLMISRTPEVTCVVVDVSHEDPEVKFNWYVDGVEVHNAKTKPREEQYASTYRVVSVLTVLHQDWLNGKEYKCKVSNKALPAPIEKTISKAKGQPREPQVCTLPPSRDELTKNQVSLSCAVKGFYPSDIAVEWESNGQPENNYKTTPPVLDSDGSFFLVSKLTVDKSRWQQGNVFSCSVMHEALHNHYTQKSLSLSPGA | no binding | 0.15 µg/mL and 1.5 nM | – | – | – | – | –
XBR2-401-X3.12 Fab (affinity matured chimeric rabbit/human Fab) (Fab, V domains shown, Chimeric rabbit/human Fab) VH: QSVKESEGGLFKPTDTLTLTCTVSGFSLSSYGVTWVRQAPGSGLEWIGYINTAGNTYYASWAKSRSTITRNTNENTVTLKMTSLTAADTATYFCARDDRWSLNIWGPGTLVTVSS VL: DPMLTQTPSSTSTAVGDTVTIKCQASQSISSDLSWYQQKPGQRPKLLIYQASTLASGVPSRFKGSGYGTEYTLTISGVQREDAAIYYCLGGYADASYRTAFGGGTKLEIK | – | – | no binding | – | – | – | fold improvement of affinity from 401 [8]: ≥ 5 fold; fold increase in binding affinity [9]: 10 fold; Kd [10]: 0.7 nM; Kd [11]: 0.72 nM; koff [11]: 3.3e-05 s⁻¹; kon [11]: 45000 M⁻¹ s⁻¹

The next lines start with results.

binding result [3] | specific lysis of 786-O cells by expanded primary T cells (E:T 10:1, 16 h), EC50 [4] | binding result [5] | koff [6] | kon [6] | Kd [7] | Binder | also measured
no binding | 0.19 µg/mL and 1.9 nM | – | – | – | – | 401×v9 ROR2×CD3 bispecific antibody (heterodimeric aglycosylated scFv-Fc) (bispecific antibody) chain 1: DPMLTQTPSSTSTAVGDTVTIKCQASQSISSDLSWYQQKPGQRPKLLIYQASTLASGVPSRFKGSGYGTEYTLTISGVQREDAAIYYCLGGYADASYRTAFGGGTKLEIKGGGGSGGGGSGGGGSQSVKESEGGLFKPTDTLTLTCTVSGFSLSSYGVTWVRQAPGSGLEWIGYINTAGNTYYASWAKSRSTITRNTNENTVTLKMTSLTAADTATYFCARDWTSLNIWGPGTLVTVSSEPKSSDKTHTCPPCPAPELLGGPSVFLFPPKPKDTLMISRTPEVTCVVVDVSHEDPEVKFNWYVDGVEVHNAKTKPREEQYASTYRVVSVLTVLHQDWLNGKEYKCKVSNKALPAPIEKTISKAKGQPREPQVYTLPPCRDELTKNQVSLWCLVKGFYPSDIAVEWESNGQPENNYKTTPPVLDSDGSFFLYSKLTVDKSRWQQGNVFSCSVMHEALHNHYTQKSLSLSPGA chain 2: EVQLVESGGGLVQPGGSLRLSCAASGYSFTGYTMNWVRQAPGKGLEWVALINPYKGVSTYNQKFKDRFTISVDKSKNTAYLQMNSLRAEDTAVYYCARSGYYGDSDWYFDVWGQGTLVTVSSGGGGSGGGGSGGGGSDIQMTQSPSSLSASVGDRVTITCRASQDIRNYLNWYQQKPGKAPKLLIYYTSRLESGVPSRFSGSGSGTDYTLTISSLQPEDFATYYCQQGNTLPWTFGQGTKVEIKEPKSSDKTHTCPPCPAPELLGGPSVFLFPPKPKDTLMISRTPEVTCVVVDVSHEDPEVKFNWYVDGVEVHNAKTKPREEQYASTYRVVSVLTVLHQDWLNGKEYKCKVSNKALPAPIEKTISKAKGQPREPQVCTLPPSRDELTKNQVSLSCAVKGFYPSDIAVEWESNGQPENNYKTTPPVLDSDGSFFLVSKLTVDKSRWQQGNVFSCSVMHEALHNHYTQKSLSLSPGA | –
– | – | no binding | 0.00048 s⁻¹ | 190000 M⁻¹ s⁻¹ | 2.6 nM | XBR2-401-hX3.12.5 Fab (affinity matured and humanized) (Fab, V domains shown, Fab expressed in E. coli) VH: EVQLVESGGGLIQPGGSLRLSCAASGFTVSSYGVTWVRQAPGKGLEWVSYINTAGNTYYASWAKSRFTISRDNSKNTLYLQMNSLRAEDTAVYYCARDDRWSLNIWGQGTLVTVSS VL: DPMLTQSPSSLSASVGDRVTITCQASQSISSDLSWYQQKPGKAPKLLIYQASTLASGVPSRFKGSGYGTEYTLTISSLQPEDFATYYCLGGYADASYRTAFGGGTKLEIK | –
– | – | no binding | 0.00023 s⁻¹ | 14000 M⁻¹ s⁻¹ | 16 nM | h401.6 Fab (hX3.12.6 framework regions with parental 401 CDR sequences) (Fab, V domains shown, this is an inference) VH: EVQLVESGGGLVQPGGSLRLSCAASGFTFSSYGVTWVRQAPGKGLEWVSYINTAGNTYYASWAKSRFTISRDNAKNSLYLQMNSLRAEDTAVYYCARDWTSLNIWGQGTLVTVSS VL: DPMLTQSPSSLSASVGDRVTITCQASQSISSDLSWYQQKPGKAPKLLIYQASTLASGVPSRFKGSGYGTEYTLTISSLQPEDFATYYCLGGYADASYRTAFGGGTKLEIK | –
– | – | no binding | 0.00022 s⁻¹ | 60000 M⁻¹ s⁻¹ | 3.8 nM | XBR2-401-hX3.12.6 Fab (affinity matured and humanized) (Fab, V domains shown, Fab expressed in E. coli) VH: EVQLVESGGGLVQPGGSLRLSCAASGFTFSSYGVTWVRQAPGKGLEWVSYINTAGNTYYASWAKSRFTISRDNAKNSLYLQMNSLRAEDTAVYYCARDDRWSLNIWGQGTLVTVSS VL: DPMLTQSPSSLSASVGDRVTITCQASQSISSDLSWYQQKPGKAPKLLIYQASTLASGVPSRFKGSGYGTEYTLTISSLQPEDFATYYCLGGYADASYRTAFGGGTKLEIK | –
